Laboratory results from patent publication US6849258.

Columns and labels:
[1] = biological target: human CD2 (CD2 antigen on human PBMC, on COS cells transfected with the entire CD2 molecule, and on CD2-expressing Jurkat cells) (human) (UniProt P06729); assay: two-colour flow cytometry of human PBMC, biotinylated LO-CD2a (FL1) and Leu-5b-PE (FL2); upper right quadrant
[2] = biological target: human CD2 (CD2 antigen on human PBMC, on COS cells transfected with the entire CD2 molecule, and on CD2-expressing Jurkat cells) (human) (UniProt P06729); assay: two-colour flow cytometry of human PBMC, biotinylated LO-CD2a (FL1) and Leu-5b-PE (FL2); upper left quadrant

Sequence of UniProt P06729 (P06729 25-351): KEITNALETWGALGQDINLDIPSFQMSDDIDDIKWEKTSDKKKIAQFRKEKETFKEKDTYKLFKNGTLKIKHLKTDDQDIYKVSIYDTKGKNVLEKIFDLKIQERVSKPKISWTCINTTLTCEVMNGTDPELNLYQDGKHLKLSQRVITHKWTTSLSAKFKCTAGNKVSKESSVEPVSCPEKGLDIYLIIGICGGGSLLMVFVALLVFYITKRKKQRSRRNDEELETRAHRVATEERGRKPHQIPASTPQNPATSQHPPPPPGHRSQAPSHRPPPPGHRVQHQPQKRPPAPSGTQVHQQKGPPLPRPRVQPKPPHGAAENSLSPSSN

Q: For “Leu-5b, mouse anti-human CD2 monoclonal antibody (Becton Dickinson)”, which Y mean (quadrant 2UR) [1] is on record?
A: 631

Q: And the % gated (quadrant 1UL) [2]?
A: 23.2%

Q: And the Y mean (quadrant 1UL) [2]?
A: 285
